{
  "source": "patent US20070059284A1",
  "molecular_target": "Human IL-21 Receptor (human) (UniProt Q9HBE5)",
  "assay": "cell-based or functional assay",
  "data": [
    {"substance": "human IL-21-saporin immunotoxin conjugate (from UniProt P20656 25-277)", "values": [
      {"measurement": "3H-thymidine incorporation of conjugate-treated MOLT-13 cells relative to IL-21 treated MOLT-13 cells", "value": 70, "unit": "%"},
      {"measurement": "density of conjugate-treated DEL cells relative to untreated cells (3H-thymidine)", "value": 25, "unit": "%"},
      {"measurement": "density of conjugate-treated HuT-78 cells relative to untreated cells (3H-thymidine)", "value": 33, "unit": "%"},
      {"measurement": "density of conjugate-treated HuT-102 cells relative to untreated cells (3H-thymidine)", "value": 20, "unit": "%"},
      {"measurement": "density of conjugate-treated YT cells relative to untreated cells (3H-thymidine)", "value": 33, "unit": "%"},
      {"measurement": "growth inhibition of IM-9 cells at the maximal conjugate concentration (250 ng/ml), Alamar Blue proliferation assay", "value": 79, "unit": "%"},
      {"measurement": "growth inhibition of RAMOS cells at the maximal conjugate concentration (250 ng/ml), Alamar Blue proliferation assay", "value": 65, "unit": "%"}
    ]}
  ]
}
